The target of test [1] is T1, human serum albumin (human, UniProt P02768 25-609).
T1 construct: also called HSA; HAS
As to the kind of experiment: SPR (BIAcore), pH 6.0.

In test [2] the target is T2, rat serum albumin (rat, UniProt P02770 25-608).
T2 construct: also called RSA; rat albumin
As to the kind of experiment: SPR (BIAcore), pH 6.0. A general note: In SPR one partner is held on a chip, and binding of the other changes the refractive index at the surface.

Test [3] addresses T3, mouse serum albumin (mouse, UniProt P07724 25-608).
T3 construct: also called MSA; mouse albumin
As to the kind of experiment: SPR (BIAcore), pH 6.0.

The target of test [4] is T1, human serum albumin. As to the kind of experiment: SPR (BIAcore), pH 7.4.
In test [5] the target is T2, rat serum albumin. The test can be described thus: SPR (BIAcore), pH 7.4.
The target of test [6] is T3, mouse serum albumin. The test can be described thus: SPR (BIAcore), pH 7.4.

Consider three molecules from patent publication US20130302250A1 (published 2013).

T2 sequence (P02770 25-608 limits assumed): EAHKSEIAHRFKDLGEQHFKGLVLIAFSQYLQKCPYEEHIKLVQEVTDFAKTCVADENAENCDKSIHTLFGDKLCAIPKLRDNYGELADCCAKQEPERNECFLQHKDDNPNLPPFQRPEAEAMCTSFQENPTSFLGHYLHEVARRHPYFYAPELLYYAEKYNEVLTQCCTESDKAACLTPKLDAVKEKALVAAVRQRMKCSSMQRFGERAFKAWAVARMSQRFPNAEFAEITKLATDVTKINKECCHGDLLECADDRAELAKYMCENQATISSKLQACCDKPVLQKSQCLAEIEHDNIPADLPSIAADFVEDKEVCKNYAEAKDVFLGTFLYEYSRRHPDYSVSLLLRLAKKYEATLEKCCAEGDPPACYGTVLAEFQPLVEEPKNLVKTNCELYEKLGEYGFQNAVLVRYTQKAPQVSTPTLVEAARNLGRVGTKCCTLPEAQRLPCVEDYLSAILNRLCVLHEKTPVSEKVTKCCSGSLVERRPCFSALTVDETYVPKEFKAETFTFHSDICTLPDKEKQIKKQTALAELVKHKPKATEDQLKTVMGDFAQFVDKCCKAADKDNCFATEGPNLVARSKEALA
T3 sequence (P07724 25-608 limits assumed): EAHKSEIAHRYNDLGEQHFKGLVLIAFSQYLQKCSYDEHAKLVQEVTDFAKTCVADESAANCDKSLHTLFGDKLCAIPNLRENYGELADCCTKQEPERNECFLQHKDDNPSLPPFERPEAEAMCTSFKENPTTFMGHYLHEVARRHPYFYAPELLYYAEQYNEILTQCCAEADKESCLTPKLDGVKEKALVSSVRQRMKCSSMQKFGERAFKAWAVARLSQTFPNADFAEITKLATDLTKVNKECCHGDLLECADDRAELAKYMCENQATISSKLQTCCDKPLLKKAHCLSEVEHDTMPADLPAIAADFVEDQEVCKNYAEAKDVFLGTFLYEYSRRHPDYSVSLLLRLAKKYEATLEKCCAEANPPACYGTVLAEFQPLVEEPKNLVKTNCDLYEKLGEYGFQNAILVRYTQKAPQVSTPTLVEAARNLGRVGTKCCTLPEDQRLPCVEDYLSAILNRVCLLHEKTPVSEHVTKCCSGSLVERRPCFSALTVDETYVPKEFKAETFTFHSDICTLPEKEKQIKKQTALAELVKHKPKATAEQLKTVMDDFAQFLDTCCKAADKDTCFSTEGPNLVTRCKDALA

B1: E06 (VNAR)
VNAR: TRVDQTPRTATRETGESLTINCVLTDTSYPLYSTYWYRKNPGSSNKEQISISGRYVESVNKGTKSFSLRIKDLTVADSATYICRAMGTNIWTGDGAGTVLTVNA
notes: Shark (Squalus acanthias) VNAR single domain, type IV; tested as monomeric 6xHis-tagged protein; also called E06-AAA-6xHis; VNAR clone E06
Consider B1, for which the “% Surface Active” value in the test with human serum albumin [1] came out at 49.6%; with rat serum albumin [2], 39.5%; with mouse serum albumin [3], 34.2%; in the test with human serum albumin [4], 85.3%; with rat serum albumin [5], 88.4%; with mouse serum albumin [6], 85.2%.

B2: huE06 v1.1 (VNAR)
VNAR: TRVDQSPSSLSASVGDRVTITCVLTDTSYPLYSTYWYQQKPGSSNKEQISISGRYSESVNKGTKSFTLTISSLQPEDFATYYCRAMGTNIWTGDGAGTKVEIKH
notes: Humanized VNAR; also called humanized E06 variant 1.1
Take B2: the “% Surface Active” value was 29% with human serum albumin [1]; 17.4% with rat serum albumin [2]; 16.3% with mouse serum albumin [3]; 77.8% with human serum albumin [4]; 72.9% with rat serum albumin [5]; 78.2% in the test with mouse serum albumin [6].

B3: huE06 v1.10 (VNAR)
VNAR: TRVDQSPSSLSASVGDRVTITCVLTDTSYPLYSTYWYRKNPGSSNKEQISISGRYSESVNKGTKSFTLTISSLQPEDFATYYCRAMGTNIWTGDGAGTKVEIKH
notes: Humanized VNAR; also called hE06v1.10
As for B3, the “% Surface Active” value in the test with human serum albumin [1] turned out to be 39.3%; with rat serum albumin [2], 27.4%; with mouse serum albumin [3], 24.5%; with human serum albumin [4] it was 79.8%; with rat serum albumin [5] it was 79.3%; with mouse serum albumin [6] it was 78.2%.
